Results on two molecules are retold here after paper PMC5159557 (Nucleic Acids Research, 2016).

What all share (assay): native MS
Assay [1] addresses Cas7 subunit of Escherichia coli type I-E Cascade (Escherichia coli).
The target of assay [2] is T1, Cas5 subunit of Escherichia coli type I-E Cascade (Escherichia coli, UniProt Q46898 1-224).
T1 sequence: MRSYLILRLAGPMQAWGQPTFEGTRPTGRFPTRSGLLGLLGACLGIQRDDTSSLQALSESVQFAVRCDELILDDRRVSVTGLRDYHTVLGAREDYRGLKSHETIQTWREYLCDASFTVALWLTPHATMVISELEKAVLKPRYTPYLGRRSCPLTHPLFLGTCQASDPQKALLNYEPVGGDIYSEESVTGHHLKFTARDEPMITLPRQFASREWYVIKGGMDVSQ

Assay [3] concerns the target T2, Cas6e subunit of Escherichia coli type I-E Cascade (Escherichia coli, UniProt Q46897 1-199).
T2 sequence: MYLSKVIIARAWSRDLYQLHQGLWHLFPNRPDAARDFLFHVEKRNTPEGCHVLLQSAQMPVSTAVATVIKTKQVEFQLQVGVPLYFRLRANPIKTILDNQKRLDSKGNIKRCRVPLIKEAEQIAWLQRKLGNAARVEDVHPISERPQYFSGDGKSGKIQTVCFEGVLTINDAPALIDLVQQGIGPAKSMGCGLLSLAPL

In the case of “Cas7 subunit of Escherichia coli type I-E Cascade (natural protein)”, the stoichiometry N in assay [1] was determined as 6.

B1: Cse2 subunit of Escherichia coli type I-E Cascade, N-terminally fused to Strep-Tag II (natural protein)
chain: MADEIDAMALYRAWQQLDNGSCAQIRRVSEPDELRDIPAFYRLVQPFGWENPRHQQALLRMVFCLSAGKNVIRHQDKKSEQTTGISLGRALANSGRINERRIFQLIRADRTADMVQLRRLLTHAEPVLDWPLMARMLTWWGKRERQQLLEDFVLTTNKNA
In the case of B1, the binding result in assay [2] and in assay [3] was “binds” throughout.

A word on the stoichiometry N: it is the number of molecules, sites or subunits per partner or assembly.
